Article PMC5387032 (Photosynthesis Research, 2017)

T1: RbcL from Thermosynechococcus elongatus, made in E. coli (Thermosynechococcus vestitus (strain …, UniProt Q8DIS5))
T1 chain: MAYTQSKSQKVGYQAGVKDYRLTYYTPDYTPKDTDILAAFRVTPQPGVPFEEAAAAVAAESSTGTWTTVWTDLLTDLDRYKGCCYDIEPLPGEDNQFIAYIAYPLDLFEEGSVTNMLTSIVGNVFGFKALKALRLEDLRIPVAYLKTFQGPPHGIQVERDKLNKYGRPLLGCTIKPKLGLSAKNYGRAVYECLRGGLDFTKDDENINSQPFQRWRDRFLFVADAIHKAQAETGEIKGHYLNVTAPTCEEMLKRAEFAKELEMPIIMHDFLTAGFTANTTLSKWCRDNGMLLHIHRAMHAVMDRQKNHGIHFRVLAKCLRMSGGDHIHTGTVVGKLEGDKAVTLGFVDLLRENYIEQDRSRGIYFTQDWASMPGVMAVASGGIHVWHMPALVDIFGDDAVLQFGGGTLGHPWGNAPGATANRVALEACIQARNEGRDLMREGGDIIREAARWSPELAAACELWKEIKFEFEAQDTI


Legend:
[1] = target: T1, RbcL from Thermosynechococcus …; assay: co-expression in E. coli with co-purification of the complex; native PAGE
[2] = target: the molecule itself; assay: native gel or EMSA; raf1 from Synechocystis co-expressed with rbcL genes in E. coli (or rbcL alone); crude extracts separated by native PAGE and probed with anti-RbcL or anti-RAF1 antibodies

Row | binding result [1] | Binder | stoichiometry N [2]
1 | binds | RAF1 from Synechocystis sp. PCC 6803, untagged, made in E. coli (protein) MTHSPESNPTVSAAEAAELIRSLLHKEGTWVDWGKKCQQLQKAGYGAEEIFEQSGFQKVQQNLVIVASQVYESLVKQGIDETVLSYYRGPKSDVLYELRILNHQQRAIAAVEAQQKNLAADEAKELAKAFQEFGYLSQLPEGFTDHPGDALAYQCWKLARQKKNLPERTRLIVKGLKFAHSPNARQAIEKLLTDLTAQPSRKAPLVPVFRLEEDQEAARLIPVAGTFPLQPQAVQAVQSLEQVEPFGLVSYQGEGAVVPVPQWQAILTAEDPVAIFCPAGQVSESLARKDEQVLVVVDRSKKIWNDGSYFLLNQGETVAIQWCETEPEREILAQVVLVLRPKKIFDANNLREPWQMDD | 
2 |  | RbcL from Thermosynechococcus elongatus, made in E. coli (natural protein, UniProt Q8DIS5 1-475, looked up, Ribulose-1,5-bisphosphate carboxylase/oxygenase large subunit, Thermosynechococcus elongatus; rbcL gene in the previously described pUC18rbcL plasmid (Tarnawski et al. 2008); also called RbcLTe; Te; source: E. coli Rosetta, expressed alone or co-expressed with raf1 or rbcX from Synechocystis, in crude extract; complexes purified (ammonium sulfate, Q-Sepharose)) MAYTQSKSQKVGYQAGVKDYRLTYYTPDYTPKDTDILAAFRVTPQPGVPFEEAAAAVAAESSTGTWTTVWTDLLTDLDRYKGCCYDIEPLPGEDNQFIAYIAYPLDLFEEGSVTNMLTSIVGNVFGFKALKALRLEDLRIPVAYLKTFQGPPHGIQVERDKLNKYGRPLLGCTIKPKLGLSAKNYGRAVYECLRGGLDFTKDDENINSQPFQRWRDRFLFVADAIHKAQAETGEIKGHYLNVTAPTCEEMLKRAEFAKELEMPIIMHDFLTAGFTANTTLSKWCRDNGMLLHIHRAMHAVMDRQKNHGIHFRVLAKCLRMSGGDHIHTGTVVGKLEGDKAVTLGFVDLLRENYIEQDRSRGIYFTQDWASMPGVMAVASGGIHVWHMPALVDIFGDDAVLQFGGGTLGHPWGNAPGATANRVALEACIQARNEGRDLMREGGDIIREAARWSPELAAACELWKEIKFEFEAQDTI | 8
